First the molecules themselves.
T1: AP2-G D1 (Plasmodium falciparum, UniProt Q8I5I9 2123-2245)
T1 sequence: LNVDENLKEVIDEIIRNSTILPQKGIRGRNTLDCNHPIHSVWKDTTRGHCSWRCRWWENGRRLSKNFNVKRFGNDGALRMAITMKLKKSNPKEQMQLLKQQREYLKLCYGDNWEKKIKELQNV

B1: XGTACX_negctrl_site404 (dsDNA)
DNA 1: ATAAAATAAATATTTTGTTATTTATTTAATCTAATA
DNA 2: TATTAGATTAAATAAATAACAAAATATTTATTTTAT
B2: XGTACX_negctrl_site42 (dsDNA)
DNA 1: AATGAATAACAATACTATATGATTTTTAATACATTA
DNA 2: TAATGTATTAAAAATCATATAGTATTGTTATTCATT
B3: XGTACX_negctrl_site478 (dsDNA)
DNA 1: TACATATATATAATATATATATCATCATATTTTCTT
DNA 2: AAGAAAATATGATGATATATATATTATATATATGTA
B4: XGTACX_negctrl_site612 (dsDNA)
DNA 1: TAAACATTTTTAATTTTGTAAAATTTTAAATAAAAA
DNA 2: TTTTTATTTAAAATTTTACAAAATTAAAAATGTTTA
B5: XGTACX_negctrl_site367 (dsDNA)
DNA 1: ATAAAATGATGTATCTGTGTATGTTTATTTTGTTTT
DNA 2: AAAACAAAATAAACATACACAGATACATCATTTTAT
B6: XGTACX_negctrl_site431 (dsDNA)
DNA 1: TTATTAAAATATACATTTGAAAGTAATCTTATTTAA
DNA 2: TTAAATAAGATTACTTTCAAATGTATATTTTAATAA
B7: XGTACX_negctrl_site397 (dsDNA)
DNA 1: TTTTTTTTCAATCTCTATATATTAAGGTTTATATTT
DNA 2: AAATATAAACCTTAATATATAGAGATTGAAAAAAAA
B8: XGTACX_negctrl_site452 (dsDNA)
DNA 1: TATCTCTACAAAATTTTATTCATTATTCATGTTATA
DNA 2: TATAACATGAATAATGAATAAAATTTTGTAGAGATA
B9: XGTACX_negctrl_site414 (dsDNA)
DNA 1: TATCTTTTTATTTTTTATTTTTTTTTTATAATTTAC
DNA 2: GTAAATTATAAAAAAAAAATAAAAAATAAAAAGATA
B10: XGTACX_negctrl_site482 (dsDNA)
DNA 1: AGAAAAAACAAAAGAGAAATGAAAAAAAAAAAAAAA
DNA 2: TTTTTTTTTTTTTTTCATTTCTCTTTTGTTTTTTCT
B11: XGTACX_negctrl_site55 (dsDNA)
DNA 1: ATGGAATATTTCATGATTTTTTTAATTTTTTTATTG
DNA 2: CAATAAAAAAATTAAAAAAATCATGAAATATTCCAT
B12: XGTACX_negctrl_site68 (dsDNA)
DNA 1: AATATAGAAATAAATATATCACATTTGTGTTTAAAC
DNA 2: GTTTAAACACAAATGTGATATATTTATTTCTATATT
B13: XGTACX_negctrl_site340 (dsDNA)
DNA 1: AAAAAATAAATAAACATAAATAAATAAATAAATATA
DNA 2: TATATTTATTTATTTATTTATGTTTATTTATTTTTT
B14: XGTACX_negctrl_site44 (dsDNA)
DNA 1: AAATTAAAATAATAATTCTACAAATTAATTTATCAT
DNA 2: ATGATAAATTAATTTGTAGAATTATTATTTTAATTT
B15: XGTACX_negctrl_site375 (dsDNA)
DNA 1: AAATAAAATATATACATATATATATTATTTAGTAAT
DNA 2: ATTACTAAATAATATATATATGTATATATTTTATTT
B16: XGTACX_negctrl_site342 (dsDNA)
DNA 1: ATGAACGGAAAAATATATATAAATATATATATCATG
DNA 2: CATGATATATATATTTATATATATTTTTCCGTTCAT
B17: XGTACX_negctrl_site85 (dsDNA)
DNA 1: TACATATTTTGTATATATTATTTATTTTATTAGTTT
DNA 2: AAACTAATAAAATAAATAATATATACAAAATATGTA
B18: XGTACX_negctrl_site148 (dsDNA)
DNA 1: TTAAAACATATTTTGAATTAATATATTTTAATATTA
DNA 2: TAATATTAAAATATATTAATTCAAAATATGTTTTAA
B19: XGTACX_negctrl_site582 (dsDNA)
DNA 1: TATTAAAAGAAAAAAAAAAAAAAATTAATACATATA
DNA 2: TATATGTATTAATTTTTTTTTTTTTTTCTTTTAATA
B20: XGTACX_negctrl_site390 (dsDNA)
DNA 1: TTATGAATATTGATGTATAAAAAAATATATATGTTA
DNA 2: TAACATATATATTTTTTTATACATCAATATTCATAA
B21: XGTACX_negctrl_site234 (dsDNA)
DNA 1: ATTATAACTAAATAAATGATATATAATATTTTATTT
DNA 2: AAATAAAATATTATATATCATTTATTTAGTTATAAT
B22: XGTACX_negctrl_site434 (dsDNA)
DNA 1: ATGCAACTATATATATATATTATATGTATGAATAAT
DNA 2: ATTATTCATACATATAATATATATATATAGTTGCAT
B23: XGTACX_negctrl_site114 (dsDNA)
DNA 1: TATTATTGTCATTTTTTTTTTTTTTTTTTCTATTTC
DNA 2: GAAATAGAAAAAAAAAAAAAAAAAATGACAATAATA
B24: XGTACX_negctrl_site499 (dsDNA)
DNA 1: TTTTACTATGATATTTATATATCTATATATGTATAT
DNA 2: ATATACATATATAGATATATAAATATCATAGTAAAA
B25: XGTACX_negctrl_site207 (dsDNA)
DNA 1: TTTTTATTTAATATTTTAAAAAAAAATCATTTTTAA
DNA 2: TTAAAAATGATTTTTTTTTAAAATATTAAATAAAAA
B26: XGTACX_negctrl_site280 (dsDNA)
DNA 1: AATTAATATATAAATAATAAAAAAAAATATATAAAC
DNA 2: GTTTATATATTTTTTTTTATTATTTATATATTAATT
B27: XGTACX_negctrl_site425 (dsDNA)
DNA 1: ATTTGTATATAATATATATAATTTTTTTTTTTTGTT
DNA 2: AACAAAAAAAAAAAATTATATATATTATATACAAAT
B28: XGTACX_negctrl_site185 (dsDNA)
DNA 1: AAACAACAAAAATGATATATATAAAATTTATAATAT
DNA 2: ATATTATAAATTTTATATATATCATTTTTGTTGTTT
B29: XGTACX_negctrl_site205 (dsDNA)
DNA 1: AACAATATATTGATATTATTTTAAGTGATTATATAT
DNA 2: ATATATAATCACTTAAAATAATATCAATATATTGTT
B30: XGTACX_negctrl_site606 (dsDNA)
DNA 1: TTTTTATATATATGTATAAATATTTTTTCTATTTAT
DNA 2: ATAAATAGAAAAAATATTTATACATATATATAAAAA
B31: XGTACX_negctrl_site100 (dsDNA)
DNA 1: TTTATATTATAATATAATAATGATCTTAATTTTTTT
DNA 2: AAAAAAATTAAGATCATTATTATATTATAATATAAA
B32: XGTACX_negctrl_site416 (dsDNA)
DNA 1: TATTTCAAAATAAAATAAAATATATATATATGTATA
DNA 2: TATACATATATATATATTTTATTTTATTTTGAAATA
B33: XGTACX_negctrl_site407 (dsDNA)
DNA 1: AATATATATATAAATAATATACCTATATATTTTTTG
DNA 2: CAAAAAATATATAGGTATATTATTTATATATATATT
B34: XGTACX_negctrl_site539 (dsDNA)
DNA 1: TAAGGATAAATAAAATGAAATGAAATAAATAAATGA
DNA 2: TCATTTATTTATTTCATTTCATTTTATTTATCCTTA
B35: XGTACX_negctrl_site428 (dsDNA)
DNA 1: AACAAGAAAAAAAAAAAAAAAAAAAAAAAATATTTT
DNA 2: AAAATATTTTTTTTTTTTTTTTTTTTTTTTCTTGTT
B36: XGTACX_negctrl_site318 (dsDNA)
DNA 1: GAAAAAAGGAAATAAAGAAAAAAAAAAATGAAATAT
DNA 2: ATATTTCATTTTTTTTTTTCTTTATTTCCTTTTTTC
B37: XGTACX_negctrl_site550 (dsDNA)
DNA 1: ACGTAATTAATTCATCAGATATAATTAATAATAATA
DNA 2: TATTATTATTAATTATATCTGATGAATTAATTACGT
B38: XGTACX_negctrl_site140 (dsDNA)
DNA 1: ATCTTATATCGTAGAGATTTTTTTTTTTTTTCATTT
DNA 2: AAATGAAAAAAAAAAAAAATCTCTACGATATAAGAT
B39: XGTACX_negctrl_site466 (dsDNA)
DNA 1: TTTATATTTATATAAATATAATATATATGAATTATA
DNA 2: TATAATTCATATATATTATATTTATATAAATATAAA
B40: XGTACX_negctrl_site402 (dsDNA)
DNA 1: AAAAGAATAATAATTTATGTATATTAATTAAAGAAT
DNA 2: ATTCTTTAATTAATATACATAAATTATTATTCTTTT
B41: XGTACX_negctrl_site296 (dsDNA)
DNA 1: AATGAATTTAATTCTACTATTTTTTTTTTAAATATT
DNA 2: AATATTTAAAAAAAAAATAGTAGAATTAAATTCATT

The target in this data set is T1, AP2-G D1. Briefly: gcPBM; about 25 ug protein; PBS, 1% milk, 0.2 mg/ml BSA, salmon testes DNA, 0.03% Triton X-100. To be noted: tags: N-terminal GST (pGEX-4T-1), kept; label: surface-attached array probe.
For the molecule B1, the binding signal is 9.22 ln median PBM intensity, better of two orientations.
The value for B2 was 9.52 ln median PBM intensity, better of two orientations; that for B3 was 9.22 ln median PBM intensity, better of two orientations; that for B4 was 9.56 ln median PBM intensity, better of two orientations.
Next, B5: 9.53 ln median PBM intensity, better of two orientations; B6: 9.42 ln median PBM intensity, better of two orientations.
B7: the binding signal is 9.41 ln median PBM intensity, better of two orientations.
The value for B8 was 9.53 ln median PBM intensity, better of two orientations; that for B9 was 9.42 ln median PBM intensity, better of two orientations; that for B10 was 9.54 ln median PBM intensity, better of two orientations.
The value for B11 was 9.52 ln median PBM intensity, better of two orientations; that for B12 was 9.45 ln median PBM intensity, better of two orientations.
Next, B13: 9.52 ln median PBM intensity, better of two orientations; B14: 9.42 ln median PBM intensity, better of two orientations; B15: 9.35 ln median PBM intensity, better of two orientations.
In the case of B16, the binding signal is 9.47 ln median PBM intensity, better of two orientations.
Next, B17: 9.55 ln median PBM intensity, better of two orientations.
For the molecule B18, the binding signal is 9.55 ln median PBM intensity, better of two orientations.
Consider B19, for which the binding signal is 9.38 ln median PBM intensity, better of two orientations.
Take B20: the binding signal is 9.46 ln median PBM intensity, better of two orientations.
The value for B21 was 9.29 ln median PBM intensity, better of two orientations; that for B22 was 9.5 ln median PBM intensity, better of two orientations.
Next, B23: 9.51 ln median PBM intensity, better of two orientations; B24: 9.32 ln median PBM intensity, better of two orientations; B25: 9.53 ln median PBM intensity, better of two orientations.
The value for B26 was 9.42 ln median PBM intensity, better of two orientations; that for B27 was 9.44 ln median PBM intensity, better of two orientations.
For the molecule B28, the binding signal is 9.32 ln median PBM intensity, better of two orientations.
Next, B29: 9.41 ln median PBM intensity, better of two orientations.
The value for B30 was 9.44 ln median PBM intensity, better of two orientations; that for B31 was 9.34 ln median PBM intensity, better of two orientations.
As for B32, the binding signal was 9.38 ln median PBM intensity, better of two orientations.
The value for B33 was 9.52 ln median PBM intensity, better of two orientations.
Next, B34: 9.56 ln median PBM intensity, better of two orientations; B35: 9.36 ln median PBM intensity, better of two orientations.
Consider B36, for which the binding signal was 9.53 ln median PBM intensity, better of two orientations.
The value for B37 was 9.41 ln median PBM intensity, better of two orientations; that for B38 was 9.22 ln median PBM intensity, better of two orientations; that for B39 was 9.51 ln median PBM intensity, better of two orientations.
Consider B40, for which the binding signal was 9.4 ln median PBM intensity, better of two orientations.
For B41, the binding signal was 9.5 ln median PBM intensity, better of two orientations.

The record behind these values is publication PMC11417369, “DNA sequence and chromatin differentiate sequence-specific transcription factor binding in the human malaria parasite Plasmodium falciparum”.
